From paper PMC5034309, “Real-time visualization of conformational changes within single MloK1 cyclic nucleotide-modulated channels” (Nature Communications, 2016)

Target: the molecule itself
Experiment: high-speed atomic force microscopy (HS-AFM); MloK1 2D crystals in lipid membrane adsorbed on mica; imaging buffer 10 mM Tris pH 7.4, 150 mM KCl, 100 uM cAMP; oscillating mode

B1: MloK1 cyclic nucleotide-modulated channel from Mesorhizobium loti (natural protein, UniProt Q98GN8 1-355, looked up)
chain: MSVLPFLRIYAPLNAVLAAPGLLAVAALTIPDMSGRSRLALAALLAVIWGAYLLQLAATLLKRRAGVVRDRTPKIAIDVLAVLVPLAAFLLDGSPDWSLYCAVWLLKPLRDSTFFPVLGRVLANEARNLIGVTTLFGVVLFAVALAAYVIERDIQPEKFGSIPQAMWWAVVTLSTTGYGDTIPQSFAGRVLAGAVMMSGIGIFGLWAGILATGFYQEVRRGDFVRNWQLVAAVPLFQKLGPAVLVEIVRALRARTVPAGAVICRIGEPGDRMFFVVEGSVSVATPNPVELGPGAFFGEMALISGEPRSATVSAATTVSLLSLHSADFQMLCSSSPEIAEIFRKTALERRGAAASA
notes: MloK1, cyclic nucleotide-modulated potassium channel of Mesorhizobium loti, full-length, wild type; The C-terminal hexahistidine tag was cleaved with thrombin after 2D crystallisation and before HS-AFM; Residues of the thrombin site may remain; also called wild-type MloK1; not shown: His6, C-terminal, cleaved
  stoichiometry N: 4
